First the molecules themselves.
T1: SacB (Bacillus subtilis levansucrase, LS) (Bacillus subtilis, UniProt P05655, D86A/E342A)
T1 construct: sacB gene of strain 168 in pET22b, expressed in E. coli BL21(DE3); residues 32-471 modelled in crystal
T1 sequence (P05655 30-473 D86A/E342A): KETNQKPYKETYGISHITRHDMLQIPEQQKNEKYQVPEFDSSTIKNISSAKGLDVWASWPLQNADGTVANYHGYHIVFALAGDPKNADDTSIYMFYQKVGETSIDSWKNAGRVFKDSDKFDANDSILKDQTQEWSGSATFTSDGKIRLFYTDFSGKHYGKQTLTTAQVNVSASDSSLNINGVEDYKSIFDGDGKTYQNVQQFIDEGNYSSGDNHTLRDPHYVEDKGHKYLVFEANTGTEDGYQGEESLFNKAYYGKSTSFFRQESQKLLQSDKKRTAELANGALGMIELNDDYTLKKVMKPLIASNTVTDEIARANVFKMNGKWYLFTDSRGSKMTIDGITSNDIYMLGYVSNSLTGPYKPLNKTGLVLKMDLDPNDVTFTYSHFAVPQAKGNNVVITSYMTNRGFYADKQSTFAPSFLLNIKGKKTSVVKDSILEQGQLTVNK

B1: SacB (Bacillus subtilis levansucrase, LS) (Bacillus subtilis subsp. subtilis str. 168; Y187A) (protein)
chain: KETNQKPYKETYGISHITRHDMLQIPEQQKNEKYQVPEFDSSTIKNISSAKGLDVWDSWPLQNADGTVANYHGYHIVFALAGDPKNADDTSIYMFYQKVGETSIDSWKNAGRVFKDSDKFDANDSILKDQTQEWSGSATFTSDGKIRLFYTDFSGKHAGKQTLTTAQVNVSASDSSLNINGVEDYKSIFDGDGKTYQNVQQFIDEGNYSSGDNHTLRDPHYVEDKGHKYLVFEANTGTEDGYQGEESLFNKAYYGKSTSFFRQESQKLLQSDKKRTAELANGALGMIELNDDYTLKKVMKPLIASNTVTDEIERANVFKMNGKWYLFTDSRGSKMTIDGITSNDIYMLGYVSNSLTGPYKPLNKTGLVLKMDLDPNDVTFTYSHFAVPQAKGNNVVITSYMTNRGFYADKQSTFAPSFLLNIKGKKTSVVKDSILEQGQLTVNK
notes: sacB gene of strain 168 in pET22b, expressed in E. coli BL21(DE3); residues 32-471 modelled in crystal
B2: SacB (Bacillus subtilis levansucrase, LS) (Bacillus subtilis subsp. subtilis str. 168; F182Y) (protein)
chain: KETNQKPYKETYGISHITRHDMLQIPEQQKNEKYQVPEFDSSTIKNISSAKGLDVWDSWPLQNADGTVANYHGYHIVFALAGDPKNADDTSIYMFYQKVGETSIDSWKNAGRVFKDSDKFDANDSILKDQTQEWSGSATFTSDGKIRLFYTDYSGKHYGKQTLTTAQVNVSASDSSLNINGVEDYKSIFDGDGKTYQNVQQFIDEGNYSSGDNHTLRDPHYVEDKGHKYLVFEANTGTEDGYQGEESLFNKAYYGKSTSFFRQESQKLLQSDKKRTAELANGALGMIELNDDYTLKKVMKPLIASNTVTDEIERANVFKMNGKWYLFTDSRGSKMTIDGITSNDIYMLGYVSNSLTGPYKPLNKTGLVLKMDLDPNDVTFTYSHFAVPQAKGNNVVITSYMTNRGFYADKQSTFAPSFLLNIKGKKTSVVKDSILEQGQLTVNK
notes: as for B1
B3: SacB (Bacillus subtilis levansucrase, LS) (Bacillus subtilis subsp. subtilis str. 168; F182W) (protein)
chain: KETNQKPYKETYGISHITRHDMLQIPEQQKNEKYQVPEFDSSTIKNISSAKGLDVWDSWPLQNADGTVANYHGYHIVFALAGDPKNADDTSIYMFYQKVGETSIDSWKNAGRVFKDSDKFDANDSILKDQTQEWSGSATFTSDGKIRLFYTDWSGKHYGKQTLTTAQVNVSASDSSLNINGVEDYKSIFDGDGKTYQNVQQFIDEGNYSSGDNHTLRDPHYVEDKGHKYLVFEANTGTEDGYQGEESLFNKAYYGKSTSFFRQESQKLLQSDKKRTAELANGALGMIELNDDYTLKKVMKPLIASNTVTDEIERANVFKMNGKWYLFTDSRGSKMTIDGITSNDIYMLGYVSNSLTGPYKPLNKTGLVLKMDLDPNDVTFTYSHFAVPQAKGNNVVITSYMTNRGFYADKQSTFAPSFLLNIKGKKTSVVKDSILEQGQLTVNK
notes: as for B1
B4: SacB (Bacillus subtilis levansucrase, LS) (Bacillus subtilis subsp. subtilis str. 168; D117A) (protein)
chain: KETNQKPYKETYGISHITRHDMLQIPEQQKNEKYQVPEFDSSTIKNISSAKGLDVWDSWPLQNADGTVANYHGYHIVFALAGDPKNAADTSIYMFYQKVGETSIDSWKNAGRVFKDSDKFDANDSILKDQTQEWSGSATFTSDGKIRLFYTDFSGKHYGKQTLTTAQVNVSASDSSLNINGVEDYKSIFDGDGKTYQNVQQFIDEGNYSSGDNHTLRDPHYVEDKGHKYLVFEANTGTEDGYQGEESLFNKAYYGKSTSFFRQESQKLLQSDKKRTAELANGALGMIELNDDYTLKKVMKPLIASNTVTDEIERANVFKMNGKWYLFTDSRGSKMTIDGITSNDIYMLGYVSNSLTGPYKPLNKTGLVLKMDLDPNDVTFTYSHFAVPQAKGNNVVITSYMTNRGFYADKQSTFAPSFLLNIKGKKTSVVKDSILEQGQLTVNK
notes: as for B1
B5: SacB (Bacillus subtilis levansucrase, LS) (Bacillus subtilis subsp. subtilis str. 168; K363A) (protein)
chain: KETNQKPYKETYGISHITRHDMLQIPEQQKNEKYQVPEFDSSTIKNISSAKGLDVWDSWPLQNADGTVANYHGYHIVFALAGDPKNADDTSIYMFYQKVGETSIDSWKNAGRVFKDSDKFDANDSILKDQTQEWSGSATFTSDGKIRLFYTDFSGKHYGKQTLTTAQVNVSASDSSLNINGVEDYKSIFDGDGKTYQNVQQFIDEGNYSSGDNHTLRDPHYVEDKGHKYLVFEANTGTEDGYQGEESLFNKAYYGKSTSFFRQESQKLLQSDKKRTAELANGALGMIELNDDYTLKKVMKPLIASNTVTDEIERANVFKMNGKWYLFTDSRGSAMTIDGITSNDIYMLGYVSNSLTGPYKPLNKTGLVLKMDLDPNDVTFTYSHFAVPQAKGNNVVITSYMTNRGFYADKQSTFAPSFLLNIKGKKTSVVKDSILEQGQLTVNK
notes: as for B1
B6: SacB (Bacillus subtilis levansucrase, LS) (Bacillus subtilis subsp. subtilis str. 168) (protein)
chain: KETNQKPYKETYGISHITRHDMLQIPEQQKNEKYQVPEFDSSTIKNISSAKGLDVWDSWPLQNADGTVANYHGYHIVFALAGDPKNADDTSIYMFYQKVGETSIDSWKNAGRVFKDSDKFDANDSILKDQTQEWSGSATFTSDGKIRLFYTDFSGKHYGKQTLTTAQVNVSASDSSLNINGVEDYKSIFDGDGKTYQNVQQFIDEGNYSSGDNHTLRDPHYVEDKGHKYLVFEANTGTEDGYQGEESLFNKAYYGKSTSFFRQESQKLLQSDKKRTAELANGALGMIELNDDYTLKKVMKPLIASNTVTDEIERANVFKMNGKWYLFTDSRGSKMTIDGITSNDIYMLGYVSNSLTGPYKPLNKTGLVLKMDLDPNDVTFTYSHFAVPQAKGNNVVITSYMTNRGFYADKQSTFAPSFLLNIKGKKTSVVKDSILEQGQLTVNK
notes: as for B1
B7: SacB (Bacillus subtilis levansucrase, LS) (Bacillus subtilis subsp. subtilis str. 168; Y237A) (protein)
chain: KETNQKPYKETYGISHITRHDMLQIPEQQKNEKYQVPEFDSSTIKNISSAKGLDVWDSWPLQNADGTVANYHGYHIVFALAGDPKNADDTSIYMFYQKVGETSIDSWKNAGRVFKDSDKFDANDSILKDQTQEWSGSATFTSDGKIRLFYTDFSGKHYGKQTLTTAQVNVSASDSSLNINGVEDYKSIFDGDGKTYQNVQQFIDEGNASSGDNHTLRDPHYVEDKGHKYLVFEANTGTEDGYQGEESLFNKAYYGKSTSFFRQESQKLLQSDKKRTAELANGALGMIELNDDYTLKKVMKPLIASNTVTDEIERANVFKMNGKWYLFTDSRGSKMTIDGITSNDIYMLGYVSNSLTGPYKPLNKTGLVLKMDLDPNDVTFTYSHFAVPQAKGNNVVITSYMTNRGFYADKQSTFAPSFLLNIKGKKTSVVKDSILEQGQLTVNK
notes: as for B1
B8: SacB (Bacillus subtilis levansucrase, LS) (Bacillus subtilis subsp. subtilis str. 168; F182A) (protein)
chain: KETNQKPYKETYGISHITRHDMLQIPEQQKNEKYQVPEFDSSTIKNISSAKGLDVWDSWPLQNADGTVANYHGYHIVFALAGDPKNADDTSIYMFYQKVGETSIDSWKNAGRVFKDSDKFDANDSILKDQTQEWSGSATFTSDGKIRLFYTDASGKHYGKQTLTTAQVNVSASDSSLNINGVEDYKSIFDGDGKTYQNVQQFIDEGNYSSGDNHTLRDPHYVEDKGHKYLVFEANTGTEDGYQGEESLFNKAYYGKSTSFFRQESQKLLQSDKKRTAELANGALGMIELNDDYTLKKVMKPLIASNTVTDEIERANVFKMNGKWYLFTDSRGSKMTIDGITSNDIYMLGYVSNSLTGPYKPLNKTGLVLKMDLDPNDVTFTYSHFAVPQAKGNNVVITSYMTNRGFYADKQSTFAPSFLLNIKGKKTSVVKDSILEQGQLTVNK
notes: as for B1
B9: SacB (Bacillus subtilis levansucrase, LS) (Bacillus subtilis subsp. subtilis str. 168; N242A) (protein)
chain: KETNQKPYKETYGISHITRHDMLQIPEQQKNEKYQVPEFDSSTIKNISSAKGLDVWDSWPLQNADGTVANYHGYHIVFALAGDPKNADDTSIYMFYQKVGETSIDSWKNAGRVFKDSDKFDANDSILKDQTQEWSGSATFTSDGKIRLFYTDFSGKHYGKQTLTTAQVNVSASDSSLNINGVEDYKSIFDGDGKTYQNVQQFIDEGNYSSGDAHTLRDPHYVEDKGHKYLVFEANTGTEDGYQGEESLFNKAYYGKSTSFFRQESQKLLQSDKKRTAELANGALGMIELNDDYTLKKVMKPLIASNTVTDEIERANVFKMNGKWYLFTDSRGSKMTIDGITSNDIYMLGYVSNSLTGPYKPLNKTGLVLKMDLDPNDVTFTYSHFAVPQAKGNNVVITSYMTNRGFYADKQSTFAPSFLLNIKGKKTSVVKDSILEQGQLTVNK
notes: as for B1

The record followed here is publication PMC7948499, “The molecular basis of the nonprocessive elongation mechanism in levansucrases” (The Journal of Biological Chemistry, 2020).

Substrate in the first series: OC[C@H]1O[C@@](CO)(O[C@H]2O[C@H](CO)[C@@H](O)[C@H](O)[C@H]2O)[C@@H](O)[C@@H]1O
In words: initial rates, reducing sugar release by dinitrosalicylic acid. The format is biochemical, Bacillus subtilis. The note with it: 50 mM acetate pH 6.0, 0-300 mM sucrose, 1 mM CaCl2 in enzyme buffer. How it is done: initial rates, reducing sugar release by dinitrosalicylic acid on SacB (Bacillus subtilis levansucrase, LS) | were expressed and purified, and their kinetic parameters were determined (Fig. 4B)
On to B1, for which the Km is reported as 8.4 (0.9) mM and the kcat is reported as 199.2 (4.4) s^-1.
As to B2, the Km is on record as 10.3 (0.7) mM and the kcat was 162.2 (2.6) s^-1.
Regarding B3, the Km is listed as 10.5 (1.3) mM and the kcat is reported as 129.4 (3.6) s^-1.
For B4, in that order: 13.2 (1.7) mM and 171.2 (5.7) s^-1.
On to B5, for which the Km is given as 10.5 (2.2) mM and the kcat was 95.4 (2.2) s^-1.

The next series has as its target T1, SacB (Bacillus subtilis levansucrase, LS). As to the kind of experiment: X-ray crystal structure, […] Å, cocrystallization. Conditions: catalytically inactive mutant; pH 6.0, 18 °C; active site (OB1, six fructose units modelled as levanhexaose); second site OB2 about 20 Å away (levanhexaose in chain A, levanbiose in chain B). The format is binding.
Turning to `OC[C@H]1O[C@@](CO)(OC[C@H]2O[C@@](CO)(OC[C@H]3O[C@@](CO)(OC[C@H]4O[C@@](CO)(OC[C@H]5O[C@@](CO)(OC[C@H]6O[C@@](CO)(OC[C@H]7O[C@@](CO)(O[C@H]8O[C@H](CO)[C@@H](O)[C@H](O)[C@H]8O)[C@@H](O)[C@@H]7O)[C@@H](O)[C@@H]6O)[C@@H](O)[C@@H]5O)[C@@H](O)[C@@H]4O)[C@@H](O)[C@@H]3O)[C@@H](O)[C@@H]2O)[C@@H](O)[C@@H]1O` [6,6,6,6,6,6-kestooctaose], the “X-ray crystal structure, 2.05 Å, cocrystallization” value was “inactive double mutant of SacB (D86A/E342A) cocrystallized in the presence of a levan-type FOS”.

Substrate in the next series: OC[C@H]1O[C@@](CO)(O[C@H]2O[C@H](CO)[C@@H](O)[C@H](O)[C@H]2O)[C@@H](O)[C@@H]1O
In words: initial rates, reducing sugar release by dinitrosalicylic acid. It is filed as biochemical, Bacillus subtilis. Conditions: 50 mM acetate pH 6.0, 0-300 mM sucrose, 1 mM CaCl2 in enzyme buffer. This is another data set of the same source.
In the case of B6, the Km amounted to 9 mM and the kcat was found to be 236.7 s⁻¹.
On to B7, for which the Km is reported as 10.6 (1.7) mM and the kcat is given as 256.3 (9.3) s^-1.
In the case of B8, the Km amounted to 14.5 mM.
Turning to B9, the Km is 19.9 mM.
